The values that follow come from paper PMC3419730, “NRFL-1, the C. elegans NHERF Orthologue, Interacts with Amino Acid Transporter 6 (AAT-6) for Age-Dependent Maintenance of AAT-6 on the Membrane” (PLoS ONE, 2012).

Experiment [1] addresses T1, 3×FLAG-NRFL-1 with PDZ I mutated (G26A/Y27A) (C. elegans, UniProt G5EDM4 1-467, G26A | Y27A).
T1 construct: not shown: GST, N-terminal, cleaved; 3×FLAG, N-terminal, kept
T1 sequence (looked up): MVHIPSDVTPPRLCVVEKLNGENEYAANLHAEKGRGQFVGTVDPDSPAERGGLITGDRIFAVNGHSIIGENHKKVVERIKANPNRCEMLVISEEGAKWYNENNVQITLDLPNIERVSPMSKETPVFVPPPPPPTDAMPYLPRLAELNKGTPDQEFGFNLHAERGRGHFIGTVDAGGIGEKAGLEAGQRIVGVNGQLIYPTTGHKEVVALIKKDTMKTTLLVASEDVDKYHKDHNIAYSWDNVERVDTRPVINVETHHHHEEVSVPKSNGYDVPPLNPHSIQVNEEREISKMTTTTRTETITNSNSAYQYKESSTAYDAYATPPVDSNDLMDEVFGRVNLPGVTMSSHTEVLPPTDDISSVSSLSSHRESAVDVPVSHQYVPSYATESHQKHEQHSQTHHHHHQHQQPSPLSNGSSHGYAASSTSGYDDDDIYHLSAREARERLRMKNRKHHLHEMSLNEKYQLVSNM
Briefly: pull-down; GST pull-down: 2 µg GST fusion protein and 5 µg recombinant 3×FLAG-NRFL-1, overnight at 4°C in 50 mM Tris pH 7.4, 150 mM NaCl, 5 mM EDTA, 0.1% NP-40; blot with anti-FLAG. The following applies: both partners purified.

Experiment [2] has as its target T2, 3×FLAG-NRFL-1 (wild type) (C. elegans, UniProt G5EDM4 1-467).
T2 construct: NRFL-1 (C01F6.6a), C. elegans, full-length wild type; cDNA first ligated into p3×FLAG-myc-CMV-24, then the 3×FLAG-NRFL-1 fragment moved into pGEX-6P-1; also called recombinant NRFL-1 wild-type; not shown: GST, N-terminal, cleaved; 3×FLAG, N-terminal, kept
T2 sequence (looked up): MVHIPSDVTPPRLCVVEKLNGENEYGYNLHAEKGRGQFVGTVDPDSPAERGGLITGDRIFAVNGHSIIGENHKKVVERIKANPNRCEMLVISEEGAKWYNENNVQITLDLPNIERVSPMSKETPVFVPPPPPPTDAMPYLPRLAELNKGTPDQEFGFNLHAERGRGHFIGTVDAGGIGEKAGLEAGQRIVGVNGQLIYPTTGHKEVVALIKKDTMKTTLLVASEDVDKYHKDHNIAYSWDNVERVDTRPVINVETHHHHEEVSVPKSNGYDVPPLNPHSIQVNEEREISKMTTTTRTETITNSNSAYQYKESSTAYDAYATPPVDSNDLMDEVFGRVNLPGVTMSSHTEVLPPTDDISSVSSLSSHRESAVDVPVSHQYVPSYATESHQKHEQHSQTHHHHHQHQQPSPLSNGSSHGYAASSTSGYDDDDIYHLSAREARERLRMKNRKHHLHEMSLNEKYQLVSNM
The description is as above. The note with it: both partners purified.

B1: GST fusion of AAT-6 C-terminus tail corresponding to residues 487–523 (domain or fragment, C. elegans, UniProt Q22397 487-523, looked up)
chain: GDEEMKNAIGGAESESEKVPAYKISPTGNGQFKCTRM
notes: also called GST-AAT-6; source: E. coli BL21 (DE3), purified (Glutathione Sepharose 4B); not shown: GST, N-terminal, kept
As to B1, the binding result in experiment [1] and in experiment [2] was “binds” throughout.
